Results on two molecules are retold here after publication PMC3600295.

Data set [1] concerns the target T1, human alpha-thrombin (Homo sapiens, UniProt P00734;P00734 315-363;364-622). Briefly: potentiometric aptasensor; SWCNT transducer; LOD 80 nM, 8.03 mV/decade (not a Kd); PBS listed as reagent; salt, pH and temperature of the potentiometric assay not given in the material.
In data set [2] the target is T1, human alpha-thrombin. The data set can be described thus: potentiometric aptasensor; PANI transducer; LOD 71 nM, 2.97 mV/decade (not a Kd); PBS listed as reagent; salt, pH and temperature of the potentiometric assay not given in the material.

With GGTTGGTGTGGTTGG (structured_DNA, 5'-NH2, coupled to SWCNT carboxyl groups) [TBA 15-mer, 5'-NH2 (SWCNT sensor)], in data set [1], the binding result was “binds”. Regarding GGTTGGTGTGGTTGG (structured_DNA, 5'-SH, coupled to polyaniline) [TBA 15-mer, 5'-SH (PANI sensor)], in data set [2], the binding result is “binds”.
